PMC11574045, “A cofactor-induced repressive type of transcription factor condensation can be induced by synthetic peptides to suppress tumorigenesis” (The EMBO Journal, 2024)

Tested on: HEK293FT cells transfected with TF library
Assay: Screening of TF condensates based on fluorescent puncta
Assay type: cell-based
Settings: Figure 1B numerical data; TF library screen, one value per transcriptional factor
Procedure, shortened: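 TF plasmids (final 1.6 μg/ml) reverse-transfected with PEI (4.8 μg/ml) into HEK293FT cells; after 60 h, cells cultured ±glucose for 12 h, fixed in 4% PFA and immunostained for Flag or GAL4 tags with Alexa 488 secondaries. Puncta scored by automated imaging of 50 random fields per well.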

Row | Molecule | Z score of condensed fraction
1 | NFKBIA (protein, UniProt P25963 1-317, looked up) NF-kappa-B inhibitor alpha: MFQAAERPQEWAMEGPRDGLKKERLLDDRHDSGLDSMKDEEYEQMVKELQEIRLEPQEVPRGSEPWKQQLTEDGDSFLHLAIIHEEKALTMEVIRQVKGDLAFLNFQNNLQQTPLHLAVITNQPEIAEALLGAGCDPELRDFRGNTPLHLACEQGCLASVGVLTQSCTTPHLHSILKATNYNGHTCLHLASIHGYLGIVELLVSLGADVNAQEPCNGRTALHLAVDLQNPDLVSLLLKCGADVNRVTYQGYSPYQLTWGRPSTRIQQQLGQLTLENLQMLPESEDEESYDTESEFTEFTEDELPYDDCVFGGQRLTL | 0.298
2 | NFATX (protein, UniProt Q12968 2-1075, looked up) Nuclear factor of activated …: TTANCGAHDELDFKLVFGEDGAPAPPPPGSRPADLEPDDCASIYIFNVDPPPSTLTTPLCLPHHGLPSHSSVLSPSFQLQSHKNYEGTCEIPESKYSPLGGPKPFECPSIQITSISPNCHQELDAHEDDLQINDPEREFLERPSRDHLYLPLEPSYRESSLSPSPASSISSRSWFSDASSCESLSHIYDDVDSELNEAAARFTLGSPLTSPGGSPGGCPGEETWHQQYGLGHSLSPRQSPCHSPRSSVTDENWLSPRPASGPSSRPTSPCGKRRHSSAEVCYAGSLSPHHSPVPSPGHSPRGSVTEDTWLNASVHGGSGLGPAVFPFQYCVETDIPLKTRKTSEDQAAILPGKLELCSDDQGSLSPARETSIDDGLGSQYPLKKDSCGDQFLSVPSPFTWSKPKPGHTPIFRTSSLPPLDWPLPAHFGQCELKIEVQPKTHHRAHYETEGSRGAVKASTGGHPVVKLLGYNEKPINLQMFIGTADDRYLRPHAFYQVHRITGKTVATASQEIIIASTKVLEIPLLPENNMSASIDCAGILKLRNSDIELRKGETDIGRKNTRVRLVFRVHIPQPSGKVLSLQIASIPVECSQRSAQELPHIEKYSINSCSVNGGHEMVVTGSNFLPESKIIFLEKGQDGRPQWEVEGKIIREKCQGAHIVLEVPPYHNPAVTAAVQVHFYLCNGKRKKSQSQRFTYTPVLMKQEHREEIDLSSVPSLPVPHPAQTQRPSSDSGCSHDSVLSGQRSLICSIPQTYASMVTSSHLPQLQCRDESVSKEQHMIPSPIVHQPFQVTPTPPVGSSYQPMQTNVVYNGPTCLPINAASSQEFDSVLFQQDATLSGLVNLGCQPLSSIPFHSSNSGSTGHLLAHTPHSVHTLPHLQSMGYHCSNTGQRSLSSPVADQITGQPSSQLQPITYGPSHSGSATTASPAASHPLASSPLSGPPSPQLQPMPYQSPSSGTASSPSPATRMHSGQHSTQAQSTGQGGLSAPSSLICHSLCDPASFPPDGATVSIKPEPEDREPNFATIGLQDITLDDVNEIIGRDMSQISVSQGAGVSRQAPLPSPESLDLGRSDGL | -0.5752
3 | NFKB2 (protein, UniProt Q00653 1-900, looked up) Nuclear factor NF-kappa-B …: MESCYNPGLDGIIEYDDFKLNSSIVEPKEPAPETADGPYLVIVEQPKQRGFRFRYGCEGPSHGGLPGASSEKGRKTYPTVKICNYEGPAKIEVDLVTHSDPPRAHAHSLVGKQCSELGICAVSVGPKDMTAQFNNLGVLHVTKKNMMGTMIQKLQRQRLRSRPQGLTEAEQRELEQEAKELKKVMDLSIVRLRFSAFLRASDGSFSLPLKPVISQPIHDSKSPGASNLKISRMDKTAGSVRGGDEVYLLCDKVQKDDIEVRFYEDDENGWQAFGDFSPTDVHKQYAIVFRTPPYHKMKIERPVTVFLQLKRKRGGDVSDSKQFTYYPLVEDKEEVQRKRRKALPTFSQPFGGGSHMGGGSGGAAGGYGGAGGGGSLGFFPSSLAYSPYQSGAGPMGCYPGGGGGAQMAATVPSRDSGEEAAEPSAPSRTPQCEPQAPEMLQRAREYNARLFGLAQRSARALLDYGVTADARALLAGQRHLLTAQDENGDTPLHLAIIHGQTSVIEQIVYVIHHAQDLGVVNLTNHLHQTPLHLAVITGQTSVVSFLLRVGADPALLDRHGDSAMHLALRAGAGAPELLRALLQSGAPAVPQLLHMPDFEGLYPVHLAVRARSPECLDLLVDSGAEVEATERQGGRTALHLATEMEELGLVTHLVTKLRANVNARTFAGNTPLHLAAGLGYPTLTRLLLKAGADIHAENEEPLCPLPSPPTSDSDSDSEGPEKDTRSSFRGHTPLDLTCSTKVKTLLLNAAQNTMEPPLTPPSPAGPGLSLGDTALQNLEQLLDGPEAQGSWAELAERLGLRSLVDTYRQTTSPSGSLLRSYELAGGDLAGLLEALSDMGLEEGVRLLRGPETRDKLPSTAEVKEDSAYGSQSVEQEAEKLGPPPEPPGGLCHGHPQPQVH | 0.04386
4 | NFKBIB (protein, UniProt Q15653 1-356, looked up) NF-kappa-B inhibitor beta: MAGVACLGKAADADEWCDSGLGSLGPDAAAPGGPGLGAELGPGLSWAPLVFGYVTEDGDTALHLAVIHQHEPFLDFLLGFSAGTEYMDLQNDLGQTALHLAAILGETSTVEKLYAAGAGLCVAERRGHTALHLACRVGAHACARALLQPRPRRPREAPDTYLAQGPDRTPDTNHTPVALYPDSDLEKEEEESEEDWKLQLEAENYEGHTPLHVAVIHKDVEMVRLLRDAGADLDKPEPTCGRSPLHLAVEAQAADVLELLLRAGANPAARMYGGRTPLGSAMLRPNPILARLLRAHGAPEPEGEDEKSGPCSSSSDSDSGDEGDEYDDIVVHSSRSQTRLPPTPASKPLPDDPRPV | 1.097
5 | NFIL3 (protein, UniProt Q16649 1-462, looked up) Nuclear factor …: MQLRKMQTVKKEQASLDASSNVDKMMVLNSALTEVSEDSTTGEELLLSEGSVGKNKSSACRRKREFIPDEKKDAMYWEKRRKNNEAAKRSREKRRLNDLVLENKLIALGEENATLKAELLSLKLKFGLISSTAYAQEIQKLSNSTAVYFQDYQTSKSNVSSFVDEHEPSMVSSSCISVIKHSPQSSLSDVSEVSSVEHTQESSVQGSCRSPENKFQIIKQEPMELESYTREPRDDRGSYTASIYQNYMGNSFSGYSHSPPLLQVNRSSSNSPRTSETDDGVVGKSSDGEDEQQVPKGPIHSPVELKHVHATVVKVPEVNSSALPHKLRIKAKAMQIKVEAFDNEFEATQKLSSPIDMTSKRHFELEKHSAPSMVHSSLTPFSVQVTNIQDWSLKSEHWHQKELSGKTQNSFKTGVVEMKDSGYKVSDPENLYLKQGIANLSAEVVSLKRLIATQPISASDSG | -0.6996
6 | ATF2/CRE-BP (protein, UniProt P15336 1-505, looked up) Cyclic AMP-dependent …: MKFKLHVNSARQYKDLWNMSDDKPFLCTAPGCGQRFTNEDHLAVHKHKHEMTLKFGPARNDSVIVADQTPTPTRFLKNCEEVGLFNELASPFENEFKKASEDDIKKMPLDLSPLATPIIRSKIEEPSVVETTHQDSPLPHPESTTSDEKEVPLAQTAQPTSAIVRPASLQVPNVLLTSSDSSVIIQQAVPSPTSSTVITQAPSSNRPIVPVPGPFPLLLHLPNGQTMPVAIPASITSSNVHVPAAVPLVRPVTMVPSVPGIPGPSSPQPVQSEAKMRLKAALTQQHPPVTNGDTVKGHGSGLVRTQSEESRPQSLQQPATSTTETPASPAHTTPQTQSTSGRRRRAANEDPDEKRRKFLERNRAAASRCRQKRKVWVQSLEKKAEDLSSLNGQLQSEVTLLRNEVAQLKQLLLAHKDCPVTAMQKKSGYHTADKDDSSEDISVPSSPHTEAIQHSSVSTSNGVSSTSKAEAVATSVLTQMADQSTEPALSQIVMAPSSQSQPSGS | -0.7003
